Test [1] has as its target MrgX1 (Mas-related G-protein coupled receptor member X1) (UniProt Q96LB2). Briefly: cell-based or functional assay.
The target in test [2] is MrgX1 (Mas-related G-protein coupled receptor member X1) (UniProt Q96LB2 1-322, limits assumed). Briefly: cell-based or functional assay.
Another test concerns the target T1, Mas receptor (UniProt P04201 1-325, limits assumed).
T1 sequence (looked up): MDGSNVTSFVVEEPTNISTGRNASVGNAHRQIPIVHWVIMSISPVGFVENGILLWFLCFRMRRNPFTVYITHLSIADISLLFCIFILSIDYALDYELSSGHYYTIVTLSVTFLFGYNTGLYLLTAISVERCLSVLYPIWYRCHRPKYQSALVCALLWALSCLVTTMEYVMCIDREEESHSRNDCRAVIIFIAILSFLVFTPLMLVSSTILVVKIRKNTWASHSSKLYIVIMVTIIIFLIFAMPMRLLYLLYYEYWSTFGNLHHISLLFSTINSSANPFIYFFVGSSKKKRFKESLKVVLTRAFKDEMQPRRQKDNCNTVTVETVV
Briefly: cell-based or functional assay.

Test [3] concerns the target T2, FPRL1 (FPR-related receptor 1) (UniProt P25090 1-351, limits assumed).
T2 construct: whole, on cells; Expressed in CHO cells (with Gα16 in the calcium flux assay); also called lipoxin A4 receptor; LXA4R
T2 sequence (looked up): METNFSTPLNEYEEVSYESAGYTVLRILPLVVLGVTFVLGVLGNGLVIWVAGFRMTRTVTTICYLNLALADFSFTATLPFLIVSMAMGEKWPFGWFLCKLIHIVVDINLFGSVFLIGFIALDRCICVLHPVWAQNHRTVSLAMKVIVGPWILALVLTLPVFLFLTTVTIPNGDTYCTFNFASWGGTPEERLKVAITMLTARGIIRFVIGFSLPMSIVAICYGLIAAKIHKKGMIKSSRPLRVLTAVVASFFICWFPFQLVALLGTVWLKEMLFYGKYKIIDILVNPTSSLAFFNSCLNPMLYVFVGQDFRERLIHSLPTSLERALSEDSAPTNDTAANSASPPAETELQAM
Briefly: competitive radioligand binding against 0.025 nM [125I] WKYMVm on FPRL1-transfected CHO cells, 90 min at 25 C. The protocol:
The specific binding of Peptide 58 (SEQ ID NO:1) to FPRL1 was analyzed by testing its ability to compete with 0.025 nM [¹²⁵I] WKYMVm (W peptide), a known agonist of FPRL1, for binding to FPRL1 in CHO transfected cells. CKβ8-1 (aa 46-137), another known ligand of FPRL1 was used as a positive control in this assay (Chiang et al 2006, Pharmacological Reviews 58, 463-487). Peptides were incubated with cells for 90 minutes at 25° C., in the presence of Incubation Buffer (50 mM HEPES, pH 7.4, 100 mM NaCl, 5 mM KCl, 5 mM MgCl2, 2 mM Ca C12, 0.5% BSA) and the amount of radioactive W peptide was measured.

In general, IC50 refers to the concentration at which inhibition is half-maximal. The term Ki denotes the dissociation constant of the complex between target and ligand, obtained from inhibition or displacement. The low end stands for higher affinity, the high end for lower affinity.

No end group written: not given here.

Sequence of MrgX1 (Mas-related G-protein coupled receptor member X1) (UniProt Q96LB2) (Q96LB2 whole entry): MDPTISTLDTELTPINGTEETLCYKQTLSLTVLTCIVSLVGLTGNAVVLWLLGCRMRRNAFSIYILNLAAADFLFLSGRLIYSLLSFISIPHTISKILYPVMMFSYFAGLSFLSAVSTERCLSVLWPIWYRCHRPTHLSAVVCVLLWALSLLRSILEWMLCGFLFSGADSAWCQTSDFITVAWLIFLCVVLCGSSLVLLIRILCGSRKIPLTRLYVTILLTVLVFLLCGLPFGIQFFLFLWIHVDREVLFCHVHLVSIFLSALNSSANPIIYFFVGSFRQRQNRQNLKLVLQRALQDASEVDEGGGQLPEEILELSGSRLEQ
Sequence of MrgX1 (Mas-related G-protein coupled receptor member X1) (UniProt Q96LB2 1-322, limits assumed) (Q96LB2 whole entry): as above

Regarding “BAM22 (bovine adrenal medulla peptide 22) (from UniProt P01211 206-227)”, the EC50 (calcium flux dose response) in test [1] was > 50 nM.
For the molecule GIGSVWHWKHRVATRFTLPRFLQ [Peptide 60_S], the “EC50 (calcium flux dose response)” value in test [2] is ≥ 300 nM.
For FLGYSIYLNRKRRGDPAFKRRLRD [Peptide 61_S], the “EC50 (calcium flux dose response)” value in the test with Mas receptor was ≥ 500 nM.
Same read-out and setting: for SMVHRWSRAVLFPAAHRP (also: acetate salt) [Peptide 33_V] the value was ≥ 1000 nM.

B1: Peptide 58 (peptide)
peptide: TIPMFVPESTSKLQKFTSWFM-NH2
notes: Synthetic peptide (SPPS); also called P58; peptide P58
As for B1, in test [3], the IC50 was 189 nM and the Ki was found to be 54.1 nM.
